Earlier results in PMC3236687.

Tests used:
[1] = target: endothelin receptor (renal papillary membranes) (Sus scrofa) (UniProt P35463); test: radioligand
[2] = target: endothelin receptors (IMCD cells) (Rattus norvegicus) (UniProt P26684); test: radioligand
UniProt P26684, sequence (P26684 21-426, chain 1 of 2): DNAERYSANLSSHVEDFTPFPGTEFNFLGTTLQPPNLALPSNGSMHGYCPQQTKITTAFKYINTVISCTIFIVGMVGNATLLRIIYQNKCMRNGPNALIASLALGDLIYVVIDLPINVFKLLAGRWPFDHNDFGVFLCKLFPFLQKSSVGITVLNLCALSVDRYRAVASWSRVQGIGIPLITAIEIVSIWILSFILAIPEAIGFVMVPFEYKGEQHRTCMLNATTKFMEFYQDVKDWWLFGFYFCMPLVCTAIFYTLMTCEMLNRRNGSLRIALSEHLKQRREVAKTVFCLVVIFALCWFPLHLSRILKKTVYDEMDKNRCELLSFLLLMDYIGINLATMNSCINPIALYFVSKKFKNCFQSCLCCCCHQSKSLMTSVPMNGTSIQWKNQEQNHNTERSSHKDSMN
UniProt P26684, sequence (P21451 27-442, chain 2 of 2, further chain): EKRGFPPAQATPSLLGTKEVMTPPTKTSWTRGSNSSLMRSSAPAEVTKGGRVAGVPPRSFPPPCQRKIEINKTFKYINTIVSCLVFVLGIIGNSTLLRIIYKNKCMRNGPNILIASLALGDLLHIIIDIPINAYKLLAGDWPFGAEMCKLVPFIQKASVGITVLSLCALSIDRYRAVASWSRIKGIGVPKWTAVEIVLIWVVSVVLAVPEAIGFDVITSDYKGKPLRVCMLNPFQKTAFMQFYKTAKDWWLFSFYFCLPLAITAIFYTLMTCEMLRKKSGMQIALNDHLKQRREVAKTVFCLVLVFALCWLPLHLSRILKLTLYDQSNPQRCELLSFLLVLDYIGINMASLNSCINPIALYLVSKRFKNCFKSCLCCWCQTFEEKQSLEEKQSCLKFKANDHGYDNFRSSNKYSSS

UniProt P35463, sequence (P35463 27-443): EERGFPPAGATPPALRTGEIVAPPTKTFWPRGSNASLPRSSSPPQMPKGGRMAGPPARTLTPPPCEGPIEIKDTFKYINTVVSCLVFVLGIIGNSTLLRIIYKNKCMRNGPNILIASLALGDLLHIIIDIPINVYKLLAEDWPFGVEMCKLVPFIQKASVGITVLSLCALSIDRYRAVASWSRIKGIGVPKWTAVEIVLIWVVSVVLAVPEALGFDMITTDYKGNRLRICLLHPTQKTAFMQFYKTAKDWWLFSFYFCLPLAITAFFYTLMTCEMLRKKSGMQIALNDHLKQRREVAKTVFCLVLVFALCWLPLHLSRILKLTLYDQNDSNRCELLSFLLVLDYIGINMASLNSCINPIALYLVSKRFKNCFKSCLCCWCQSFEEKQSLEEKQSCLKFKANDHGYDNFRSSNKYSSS

- Kd [1]: 0.137 nM
- Kd [2]: 0.218 nM
Substance: ET-1 (from UniProt P05305)
